Measurements as given in the PETadex activity labels.

Substrate: BHET
Settings: 120 h

| Protein | plate clearing |
| --- | --- |
| unnamed (protein) MQVRLSSLCRTALVALGLAWAAATAHAQTIDDASDISLAIGPAPTSSALNALNGPFAVSTSIVVLPVGFGGGTIYYPTQAGKYGVIALCPGFTATSTSLAWLARRLASWGFVVVNMNTVTVFDFPSSRATEMRVALRYATNWSSATVRARIDPNRQAVAGHSMGGGGALIAAVRNPELKAAYALMPWSPTYSPTSMKVPTMLVAADADTIAPAALMVRPYYKLIPATVPKAYAELRWGNHFSPILVNTPIGRYGAAWMKRFVDGDTRYQDFLCGAAHQYYANALVFASYLKNCPY | not clears the plate |
| unnamed (protein) MNRSILERFVVGTSALLFSISAYSFTPSPTPEPEPEPCQGVCDFTRGPNPTSSYLEASRGPYSVNTVDVSRSVSGFGGGTIHYPTNTTGKMGAIAIVPGFLAAESSIAWWGPRLASHGFVVITIATNSTFDQPASRESQLSRALDYVINQSNSSGSPIAGKVDSTRVGAMGWSMGGGGTLKIASGSRLSAAIPLAPWHTGSNDFDQIDTPTMIIACENDTTAPVGRHASPFYNRISNATDKAYLEINNGGHSCANGGGTNAGLLGKYGVSWMKRFIDKDTRYSQFLCGPNHASNSAISEYRDTCSY | not clears the plate |
| unnamed (protein) MKTTALRIKGLSIAAAIALSTLAPAAFSQTSPPTSASLNATSGPLSVSTASVFLPVGFGGGTIYYPTVAGKYGVIAISPGFTATESSIAWLGRRIATHGFVVITLNTNTTLDQPDSRATQLMAALRYVLNSSGSAVRARIDPTRLAVAGHSMGGGGSLIAARDNPTLKASYPMTPWNISSNFSTVRVPTMIIGADGDTIAPVASHARPFYASLPSSTLKAYGELNGATHFAPNTTNTPIGRYAVTWMKRFVDGDTRYSPFLCGAQHTSYATSRIFDRYNQNCPY | not clears the plate |
| unnamed (protein) MRTSRTRPLRRLAAALVLALAVVLAACDIRGPDPTEQSLTASSGPFAVGTLAVPSSAGFGGGTIYYPTNTEGPFAVISVTPGFTGTQSSIAGWGPRLASHGFVAITINTTNTFENPDTRSTEQRQALTYVVNQSNTSSSPIYGKVDGNRRGVAGHSMGGGGTLISAQADPTIRAAVPLAPWNSSTNFSNVTVPTLILACQNDSIAPVASHASPMYNSIPATTDKSYLSIAGGDHFCANSPTGGSGNVGKYGVAFFKRFLDGDTRYDPWVCGASKPAAGSAINEVRSTCPF | not clears the plate |
| unnamed (protein) MMNSVMDRFTIAASAVLFSASAWSFTPTPDPDPTPPPQPCQVDCDFTRGPNPTSSYLEANSGPYSVGTVRVSSSVNGFGGGTIHYPTNTTGKMGAIAVVPGFTAGESSIAWWGPRLASHGFVVITIATNSGFDQPASRATQLSNALDYVISQSNSSSSAISGMVDASRLGAMGWSMGGGGALRLASGARLSAAIPLAPWHSGSNPFDQIETPTMIIACESDSTAPVGSHASPFYNRIPASTDKAYLEINNGDHRCANGGGSNGGLLGKYGVSWMKRFIDRDTRYQQFLCGPNHEANTAISEYRDTCAY | clears the plate (z > 3 vs empty vector) |
| unnamed (protein) MSLVSHRAATTRACSKPQTEISRSPRNRRGAFIACVSLALVSSFAHADVLLQENFDGTLGQFTSVGSVSVTTSGARMAGSFGGTDGAITSAAISTVGFTALSLSYTRTTTGLDSGEAGILEYSTNGTTYTSLGSTQSASGPVTVGLPAAAENQAGLRLRWRVNASSSSEYYTVDSIQLQGTGGTSCEPNCPPTGNPYQRGPAPTTSTLDATSGSFTVDSVTVSSTAANGYGGGTIYYPVNTTEGPFAAIAVIPGYLSPQSSIQQWGPRLASWGFVVITITTNSGSDQPSSRATQLVAALDQVVSYSNSTTHAIRGKVDPTRLGVAGWSMGGGGSLIALDRNPTKLKAGMMFAPWNSSTNFSGVNQPALIFACESDGTAPVSSHALPFYNSIPSSNDKAFAEVNNGSHSCANDPRNNSGRLGRYGVSWMKRFLDDDTRFTEFLCGAPHSSVISGTTTYSRYLSTCPY | clears the plate (z > 3 vs empty vector) |
| unnamed (protein) MKTNRRRRLGRLALAAAALLLSVAAQAQNGSAPPGPDPDPDPNPPESDNPYPRGPDPTAATLEASSGPFAVSSFRPSSTPGFGGGTIYYPTNTNEGPFAAIAVAPGFVGTESTIDWLGPRLASHGFVVITIDTNSLFDFPDSRASQLMAALDIVIAESNGSSPISGLVDPDRTGLMGHSMGGGGSLIAARDNPTIDAVIPLAPWNSSTNFSAIDVPTLIVACENDTVAPVSQHASPMYESIPSSVDKAFLEINGGDHFCANSGNANQDILGKYIVSWMKRFLDQDTRYDPFLCGPNHEADPDISEYRDTCPY | not clears the plate |
| unnamed (protein) MIIRYISRLALLAGAMTLSASLWAAPVPCRDCSTGYQRGDVPSTAELESRRGPYSVRTIRVSRLVNGFGGGTIYYSTESGGGQGIIAVVPGYLSLETTIQWWGPRLASWGFTVITMDTNTIYDQPTSRASQLSAALNYVINKGNDSRSPLYGLVDPNRTGVIGWSMGGGGALELSTRRNIQATIAQAPWHVGAGTFAQISTPTMILACQLDAVAPTAIHAKAFYNVIPRTTSKAYFEVRAGSHFCANTGYPNTDIIGRNGIAWMKRFIDNDTRYNQFLCGPNFESDFRISKYRDTCNY | not clears the plate |
| unnamed (protein) MMAAAGSGGTSGGVSGSTGSAGAAGGATGAAGGGASSTGGFVREDAPTEMSTRAAKGKYTVKSYTSGFSGTGKDFLAGTLYYPTDADPPFASVAVVPGFTALQNSIMDWGPFLASHGIVTMTIDTLTTSDPPAQRADELMGALKSIAGENTRDGSPIKGQLDTTRQCVSGWSMGGGGTLIAASMHPELKCAVSFAAWQPTGGAMNKVPALMFEGTTDPLAAGMSQGFYDQTPDSTPKMIFEVAGASHDVANSPHNSMGIIGEYGLSWFKVYLEGDMRYKQFLLLP | not clears the plate |
| unnamed (protein) MFNIRKVAVAASVLLVSMAASAQYQKGPNPTASALERTGSFSTGSSSVSSLSASGFGGGNLYYPTASGTYGAIALCPGFTATSSSLAWLGPRLASHGFVVLIIDTNSTLDQPDSRGRQLKAATDYLVAQNSRTGSPIRGKVDTSRLAVGGHSMGGGGTLEAIRDNPSYKAGMPLAPWNTTKSFSRITVPTLIIGGSADTVAPDGSHSIPFYTSIPSSTAKIFMELRGGSHFFPQTSDPNVSRFAISWYKRWLDLDTRYSTFLNTRPSTTAVSDFRVSRTF | not clears the plate |
| unnamed (protein) MTSTTVRFAKRLIGAAALLATASVFAQSLPSDAALQATSGPLKIAQANIATPNGYGSGTVYYPTTGTNMGLVVIAPGFTEGPSFNAFWGEKLASWGFVAVNIGTKTTLDLPGPRATQMWAALQQVAALSKTSGSPFAGKVDANRLAAMGHSMGGGGTLLISQDHPTLKAAIPMAPWNLTQKNFPKITVPQLMFACQNDIIAPVSGHADRFWTSFNTTLPRVFAESKGQDHFCPTNLTSAAEKAAFGRIAIAWYKIYLDGDTQYKQVITNGNSPVFSRYLTGGL | not clears the plate |
| unnamed (protein) MDKTRLFSTLSMVTSALLFSISVSAGKPSKGGDEPAPEPAACISDTDITSAALSSTGSSGPFTVSTKDVSRWSASGFGGGTIHYPTGAGDCGPIGGIAVVPGYVSYEASIKWWGPRLASWGFVVITINTNSIYDQPDSRATQLSAALDHIINDSTVGSMVDSSRLGAIGWSMGGGGALKLATDRSEVKAIIPQAPWYSGRYGRMKTPAFMIGCENDFVAPTSNHVDVFYANASGPKMKIEVNNGDHSCANSGYNETLLGKPGIAWMQRYIHGDTRFNQFLCGNENYGSSNSVSAYDFESCP | not clears the plate |
| unnamed (protein) MNKTILEKIAVGTGALLFSVSAFSFTPSPTPDPTPDPEPCQGECDFTRGPNPTSSYMEANAGPYTVRTSSVSGSVSGFGGGTVHYPTNTSGEMGAIAIVPGFLAGESSISWWGPRLASHGFVVITIATNSVFDQPGSRSTQLGRALDYLVSQSNSSNSPISGMVDASRLGAMGWSMGGGGVLRLASGSRLVAAIPLAPWNTGSNDFDQIQTPTMIMACENDSTARVGTHASPFYNSIPGSTDKAYLEINGGSHSCANGGGSNGGLLGKYGVSWMKLFMDEDTRYSQFLCGPNHAANGAISEYRDTCNY | not clears the plate |
| unnamed (protein) MKLERSVAQATSVARGARRHEKPSSLTSVALAGVSLALFSTFAHADVLLQENFDGNLGQFSSSGSVTVTTSGARMAGSYGGTDGAITSPAISTVGFTGLSLSYTRTTTGLDSGEGGFLEYSTNGTTFTSLGSTQSASGPVTVALPAAVENQAALRLRWRVNASLSSEYYTVDTILLEGTGGTSCEPNCPPTGNPYQRGPAPTVSSLQATTGPFQTASSAVSSSAADGYGGGTIYYPTNTTEGPFAAIAVVPGYLSPQSSIQQWGPRLASWGFVVITIATNSTSDQPSSRATQLVAALDQVVSYSNSTSHAIRGKVDPARLGVAGWSMGGGGTLIALDRNATKLKAGMAFAPWNSSTNFSGVNQPALIFGCESDGTAPVSSHSLPFYNSMPSTNDKAFAEVNNGGHSCANDPRNNSGMIGRYGVSWMKRFLDNDTRFSDFLCGAPHDTAVSGSTFSRYLETCPY | clears the plate (z > 3 vs empty vector) |
